Results published in the nanobody polyreactivity screen of Harvey et al. (2022).

Assay: yeast display, Sf9 membrane polyspecificity reagent, FACS + sequencing; frameworks hold sequencing errors
In short: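 Nanobodies from a synthetic yeast display library (Saccharomyces cerevisiae BJ5465), induced 36–48 hours with galactose, were stained 1 hour at 4 °C with 10% biotinylated, detergent-solubilized Sf9 membrane reagent, enriched on streptavidin microbeads, then FACS-sorted. Anti-HA (expression) and streptavidin (reagent binding) fluorescence set low and high (top ~1%) gates. Polyreactivity labels come from the gate of origin. Genes were colony-PCR amplified, MiSeq 2 × 250 sequenced and filtered by CDR length.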

Row | Sequence | polyreactivity (PSR sort gate)
1 | QVHLVESGGGLVQAGGSLRLSCAASGRIFKIYAMGWYRQAPGKERELVASISWSGGRTYYADSVKGGFTISRDNAKNTVYVQMNSLKPEDTAVYYCAATFSNSSYIYDFWGQGTHVTVSS | high polyreactivity
2 | QVQLVESGGGLVQAGGSLRLSCAASGNTFRDYAMGWYRQAPGKERELVAAITSAGARTYYADSVKGRFTISRDNAKNTVYLQMNSLKPEDTAVYYCAADWSGYYTYDYWGQGTQVTVSS | low polyreactivity
3 | QVQLVESVGGLVQAGGSLRLSCAASGYIFDRNAMGWYRQAPGKERELVAAITKRGGITYYADSVKGRFTISRDNAKNTVYLQMNSLKPEDTAVYYCNALARSSRYDYWGQGTQVTVSS | low polyreactivity
4 | QVQLVESGGGLVQAGGILSLSCAASGRIFPDNTMGWYRQAPGKQRELVAVITYSGGSTYYADSVKGRFTISRDNAKNTVYLQMNSLNPEDTAVYYCAARDFYIWFAEVDYWGQGTLVTVSS | low polyreactivity
5 | QVQLVESGGGLVQAGGSLRLSCAASGSIFDLNAMGWYRQAPGKERELVAAISKSGGSTYYADSVKGRFTISRDNAKHTVYLQMNSLKPEDTAVYYCAARYHYPGNWYNYWGQGTQVTVSS | low polyreactivity
6 | QVQLVESGGGLVQAGGSLRLSCAASGSIFTTYTMASYRQAPGKERELVAAISSSGVRTYYADSVKGRFTISRDNAKNTVYLQMNSLKPEDTAVYYCAARVGKYAEHRYNYWGQGTQVTVSS | high polyreactivity
7 | QVQLVESGGGLVQAGGSLRLSCAASGFTFYYYAMGWYRQAPGKERELVAAISSGGRTNYADSVKGRFTISRDNAKNTVYLQMNSLKPEDTAVYYCAAQYRNYFPYRVVRQGVGYWGQGTQVTVSS | high polyreactivity
8 | QVQLVESGGGLVQAGGSLRLSCAASGSTLYKYAMGWYRQAPGKEREFVAAISWSGSSTYYADSVKGRFTISRDNAKNTVYLQMNSLKPEDTAVYYCAALYTHYYWIEYDYWGQGTQVTVSS | low polyreactivity
9 | QVQLVESGGGLVQAGGSLRLSCAASGSISVYNAMGWYRQAPGTERELVAAISWSGGRTSYADSVKGRFTISRDNAKNTVYLQMNSLKPEDTAVYYCAADELTVLWDEDYWGQGTQVTVSS | low polyreactivity
10 | QVQLVESGGGLVQAGGSLRLSCAASGITFRSYAMGWYRQAPGKERELVATISWSGGITYYADSVKGRFTISRDNAKITVYLQMNSLKPEDTAVYYCAKASQSWGRDDYYYWGQGTQLTVSS | low polyreactivity
11 | QVQLVESGGGLVQAGGSLRLSCAASGTMPGYAMGWYRQAPGKERELVAAITWSDDSTFYADSVKGRFTISRDNAKNTVYLQMNSLKPEDTAVYYCAAEYVVSTQEFDYCGQGTQVTVSS | low polyreactivity
12 | QVQLVESGGGLVQAGGSLRLSCAASGSTFYGYALGWYRQAPGKERELVAGITSAGSTYYADSVKGRFTISRDNAKNTVYLQMNSLKPEDTAVYYCAAVYRRWIWRERYYYCGQGTQVTVSS | high polyreactivity
13 | QVQLVESGGGLVQAGGSLRLSCAASGLTFTLYTMGWYRQAPGKEREFVAVISGTGGRTYYADSVKGRFTISRDNAKNTVYLQMNSLKPEDTAVYYCATCYSFRYWGQGTQVTVSS | high polyreactivity
14 | QVQIVESGGCLVQAGGSLRLSCAASGRTFWYYTMGWYRQAPGKEREFVAAISYSAGNTYYADSVKGRFTISRDNAKNTVYLQMNSLKPEDTAVNYCAVQRGYRSNAYDYWGQGTQVTVSS | high polyreactivity
15 | QVQLVESCGGLDQAGGSLRLSCAASGRIFYAYAMGWYRQARGKERELVAAITSSGGRTYYADSVKGRFTISRDNAKNTVYLQMNSLKPEDTAVYYCAAYDYWGQGTQVTVSS | low polyreactivity
16 | QVQLVESGGCLVQAGGSLRLSCAASGFTFSNYAMGWYRQPPGKESEFVAAISGTGGSTYYADSVKGRFTISRVNAKNTVYLQMNSLKPEDTAVYYCARRRTYPPGRYYYWGQGTQVTVSS | high polyreactivity
17 | QVQLVESGGGLVQAGGSLRLSCAASGRTFYSNAMGWNRQAPGKERELVATITLSGGSTDYADSVKGRFTISRDNAKNTVYLQMNSLKPEDTAVYYCNADTDVHLIMGYWGQVTQVTVSS | low polyreactivity
18 | QVQLVESGGGLVQAGGSLRLSCAASGITFDTYAMGWYRQAPGKERELVAAISSSGSTNYADSVKGRFTISRDNAKNTVYLQMNSLKPEDTAVYYCATDYWPGTGGNYDYWGQGTQVTVSS | low polyreactivity
19 | QDQLVESGGGLVQAGGSLRLSCAASGRIFRLNAMGWSRQAPWKERELVAAITRGGNTYYADSVKGRFTISRDNAKNTVYLQMNSLKPEDTAVYYCAATSSRVSGYRYDYWGQGTQVTVSS | high polyreactivity
20 | QVQLVESGGGLVQAGGSLRLSCAASGITFSRYAMGWYRQAPVKERELVAAITWDGGRTYYADSVKGRFTISRANAKNTVYLQMNSRKPEDTADYYCSAGSAWWYYWGQGTQVTVSS | high polyreactivity
21 | QVQLVESGGGLVQAGGSLRLICAASGRTFNWNAMGWYRQAPGKERELVAAITSGGNTYYADSVKGRFTISRDNAKNTVYLQMNSLKPEDTAVYYCAKVTYEGGYRYNYWGQGTQVTVSS | high polyreactivity
22 | HVQLVESGGGLVQAGVSLRLSCAASGRIFVLYTRGWYRQAPGKDRELVAAISRRGGNTNYADSVKGRFTISRDNAMNTVYLQMNSLKPEDTAVYYCNARWTGARYYYYPMDYWGQGTQVTVSS | high polyreactivity

Row | Sequence | polyreactivity (PSR sort gate)
23 | QVQLVESGGGLVQAGGSLRLSCAASGSTLYGYAMGWYRQAPGKERELVAAISVSGGRTYYADSVKGRFTISRDNAKNTVYLQMNSLKPEDTAVYYCAAYGTTRMDYWGQGTQVTVSS | high polyreactivity
24 | QVQLVESGRGLDQAGGSLRLSCAASGSTFESYVMGWYRQAPGKERELVADITKSGGNTYYADSVKGRFTISRDNWMITVYLLMNSLKPEDTAVYYCAVERGRRGMDYWGQGTQVTVSS | low polyreactivity
25 | QVQLVESGGGLVQAGGSLRLSCAASGSTIYGYAMGWYRQAPGKERELVAAISISGGGTYYADSVKGRFTISRDNAKNTVYLQMNSLKPEDTAVYYCARRYFWGQGTQVTVSS | low polyreactivity
26 | QVQHVESGGGLGQAVGSLRLSCAASGFTFARNAMGWDRQAPGQERELVAAISSSGAGTYYADSVKGRFTISRDNSKNTVYLQMNSLKPEDTAVYYCAAYSWKGYDYWGQGTQVTVSS | high polyreactivity
27 | QVQLVESGGGLVQAGGSLRLSCAASGRIFGRNAMGWYRQAPGKEREFVARIRTSGGSTYYADSVKGRFTISRDNAKNTVYLQMISLTPEDTAVYYCAAAVYTSARGYDYWGQGTQVTVSS | high polyreactivity
28 | QVQLVESGGGLVQAGGSLRLSCAASGSTFRYYAMGWYRQAPGKERELVAGITNGGRTNYADSVQGRFTISRDNAKNTVYLQMHSLKPEDTAVYYCAADLAWRRIGYNYWGQGTQVTVSS | high polyreactivity
29 | QVQLVESGGGLVQAGGSLRLSCAASGRIFTTYAKGWYRQAPGKERDLVAAISQNGGSTYYADSVKGRFTISRDNAKNTVYLPMNSLKPEDTAVYYCKAGAAGYYDYDYWGQGTQVTVSS | low polyreactivity
30 | QVQLVESGGGLVQAGGSLRLSCAASGRTFGLNAMGWYRQATGKERELVAAITSGGSTYYADSVKGRFTISRDNAKKTVYLQMNSLKPEDTAVYYCAVTYNGDSSWPGDYWGQGTQVTVSS | low polyreactivity
31 | QVQLVESRGALVQAGRSLRLRCAASGLIFYLYAMGWYRQAPGKARELVAAINYSGGRTYYADSVKGRFTISRDNAKNTVYLQMNSLKPEDTAVYYCAAKSAGFQYNYWGHGTQVTVSS | high polyreactivity
32 | QVQLVESGGGLVQAGGSLRLSCAASGSISRYYAMGWYRQAPRKERELVAAISSNGGSTYYADSVKGRFTISRDNAKNSVYLQMYSLKPEDTAVYYCNAFYVGYIRYWTNKLVDYWGQGTQVTVSS | high polyreactivity
33 | QVQLVESGGGLVQAGGSLRLSCAASGRTFYINAMGWYRQAPGKERELVATISRSGGDTYYADSVKGRFTISRDNAKNTVYLQMNSLKPEDTAVYYCYARQYYYRSGAYASRYLYNYWGQGTQVTVSS | high polyreactivity
34 | QVQLVESGGGLFQAGGSLRLSCAASGISFWSYDMGWYRQAPGKERELVAAISRGGESTYYADSVKGRFTISRDLAKNTVYVQMNSLKPEDTAVYYCPALRPREEYYWGQGTQVTVSS | high polyreactivity
35 | QVQLVESGGGLVQAGGSLRLSCAASGSTLPANAMGWYRQAPGKERELVAAITITTDGSTYYADSVKGRFTISRDNAKNTVYLQLNSLKPEDTAVYYCAVARYRYHIRKMGYWGQGTQVTVSS | low polyreactivity
36 | QVQLVESGGGLVQARGSLRLICAASGYIFRGYAMGWYRQAPGKERELVASISRTGVSTYYADSVKGRFTISRDNAKNTVYLQMNSLKPEDTAVYYCAADYYYWYYKSGYDYWGQGTQVTVSS | high polyreactivity
37 | QVQLVESGGGLVQAGGSLRLSCAASGITFKGYTMGWYRQAPGKERELVATISRGGRTYAVSVKGRFTISRDNAKNTVYLQMNSLKPEDTAVYYCAADKYWAQNDYWGQGTQVTVSS | low polyreactivity
38 | QVQLVESGGGLVQAGGILRLSCAASGIIFSQYTMGWYRQAPGKESELVAAISYTGGRTYYADSVKGRFTISRDNAMNTVYLQMNSLKPEDTAVYYCAADFPIVWYEEYYWGQGTQVTVSS | high polyreactivity
39 | QVQLVESGGGLVQAGGSLRLSCAASGSTFGLYAMGWYRQAPGKERELVAAISSRGSRTYYADSVKGRFTISRDNAKNTVYLQMNSLKPEDTAVYYCNALYASSVRHKVTYDYWGQGTQVTVSS | high polyreactivity
40 | QVQLVESGGGLVQAGGSLRLSCAASGFTFVRYAMGWYRQAPGKERELVAAISRGGGRTSYADSVKGRFTISRDNAKNTVYLQMNSLKPEDTAVYYCATGTYAAAQGTRYYYLGQGTQVTVSS | high polyreactivity
41 | QVQLVDSGGCLVQAGGSLRLSCASSGRIIAHYAMGWYRQSPGKESELVAAISTRGGSTYYADSVKGRFTISRDNEKNTVYLQMNSLKPEDTAVYYCAAKSNNIATMDYWGQGTQVTVSS | low polyreactivity
42 | QVQLVASGGGLVQAGGSLRISCAASGRTITPYAMGWYRQAPGKERELVATISSGTSPNYADSVKGRFTISRDNAKNTVYLQMNSLIPEDTAVYYCAADGYTYKFDYWGQGTQVTVSS | low polyreactivity
43 | QVQLVDSGGGLVQAGGSLRLSCAASGSNITRKAMGWYRQAPGKERELVAAIRKIGGRTYYADSVKGRFTISRDNAKNTVYLQMNSLKPEDTAVYYCAAGGSYYRDDYWGQGTQVTVSS | low polyreactivity
